According to patent US20220054591A1, “METHODS OF TREATING OF INFLAMMATORY BOWEL DISEASE AND PARASITE INFECTION” (President and Fellows of Harvard College, priority 2016, published 2022):
Entries after “also recorded” stand apart in the source; their conditions may differ.

Columns and labels:
Tritrichomonas muris = test: Metronidazole in drinking water of WT (BIH) mice: T. muris abundance in stool DNA by qPCR; format: in vivo; conditions: metronidazole 2.5 g/L in drinking water for 1 week
Procedure: (§1) Antibiotic treatment—Mice were treated with metronidazole (2.5 g/L) with 1% sucrose in the drinking water for 7 days. Control mice were given 1% sucrose water over the same time span. Fluid intake was monitored and metronidazole solution was changed 4 days after initiating antibiotic treatment.
Tritrichomonas muris enumeration—The distal 10 cm of small intestine was removed and flushed with ice-cold sterile PBS using a 19-gauge feeding needle. The intestinal contents were then pelleted by centrifugation and stored at −20° C. Genomic DNA was isolated from the stool with QIamp Fast DNA Stool mini kit (Qiagen) according to the manufacturer's directions. To detect and enumerate Tritrichomonas muris, quantitative PCR (qPCR) was performed using KAPPA SYBR fast Universal PCR (KAPPA Biosystems) with the following primers recognizing T. muris 28S rRNA gene: 5′-[…]-3′(SEQ ID NO. 1) and 5′-[…]-3′ (SEQ ID NO. 2). To convert qPCR values into parasite numbers, T. muris trophozoytes were isolated and counted using a hemocytomer before extracting genomic DNA and analyzing by qPCR. […] The T. muris 28S rRNA gene and Eubacteria 16S rRNA gene were amplified by qPCR and T. muris 28S relative abundance was calculated as 2^−ΔCt(28S-16S).

tuft cells = test: Metronidazole in drinking water of WT (BIH) mice: tuft cell frequency in the epithelium; format: in vivo; conditions: metronidazole 2.5 g/L in drinking water for 1 week, vs control
Procedure: as §1
Histology and Fluorescence microscopy —The small intestine was removed and divided into proximal and distal sections before fixation in 4% paraformaldehyde. The tissue was then embedded in paraffin and cut into 5 μm thick sections. For both histology and immunofluorescence, sections were initially deparaffinized and rehydrated. Hematoxylin and eosin (H&E) staining was performed using standard procedures. Goblet cells were identified by alcian blue/nuclear red staining and enumerated along the crypt-villus axis by quantitative microscopy. For immunofluorescence, heat-mediated antigen retrieval was performed in Tris-EDTA buffer 0.05% Tween-20 pH 9.0 for 20 minutes. Afterwards, the slides were washed in PBS and blocked in PBS containing 3% BSA, 3% donkey serum, 0.1% Triton X-100, 0.1% saponin for 1 hour at room temperature. Primary antibodies were incubated overnight at 4° C. and secondary antibodies were applied for 1.5 hours at room temperature. […]

[1] = tested on: DCLK1 and Trpm5 expression in organoids; test: Small intestinal organoids treated with cytokine: gene expression by RT-qPCR; format: cell-based, mice; conditions: IL-13 treated organoids
Text: RNA isolation and RT-PCR for in vivo and vitro tuft cells—Epithelial cells from Gfi1b^EGFP/+ mice were isolated and stained for Fluorescence Activated Cell Sorting (FACS) as previously detailed. Tuft cells were sorted based on GFP^+EpCam^+CD45^−PI^− while the remaining epithelial cells were GFP-EpCam^+CD45^−PI^−. RNA was then extracted from tuft cells and the remaining epithelium using RNeasy Micro Kit (Qiagen). Whole intestinal organoids were initially stored in RNAlater solution (Ambion) before extracting RNA using Qiazol (Qiagen) according to the manufacturer's directions. cDNA was synthesized using the iScript cDNA Synthesis Kit (Bio-Rad) and RT-qPCR was performed using the KAPA SYBR FAST Universal qPCR Kit (KAPA Biosystems). […]
Small intestine organoid culture and flow cytometry—Distal small intestinal organoids were prepared as previously described (Miyoshi et al., Nat Protoc. 8, 2471-2482 (2013)). […] The resulting solution was filtered through 40 μm mesh and stained for flow cytometry with APC-conjugated anti-EpCam (clone G8.8, Biolegend) with cell viability assessed with PI (Biolegend).

[2] = tested on: tuft cells in small intestinal organoids; test: Small intestinal organoids treated with recombinant cytokine: GFP+ tuft cell abundance by flow cytometry; format: cell-based, mice; conditions: 48 hours; for tuft cells of total organoid cells: IL-13 10 ng/ml, untreated 0.3%; for effect on tuft cell numbers / abundance in organoids (in words): WT and Trpm5-/- organoids, IL-13 10 ng/ml or IL-25 50 ng/ml
Procedure: Small intestine organoid culture and flow cytometry—Distal small intestinal organoids were prepared as previously described (Miyoshi et al., Nat Protoc. 8, 2471-2482 (2013)). To assess cytokine effects on tuft cells abundance, IL-13 (10 ng/ml, Biolegend, Endotoxin level <0.01 ng/μg) or IL-25 (50 ng/mil, Biolegend, Endotoxin level <0.01 ng/μg) were added to organoid media for 48 hours. To perform flow cytometry, organoids were liberated from the matrigel matrix as described by Miyoshi et al. and digested in DMEM containing 10% FBS, 0.5 units/ml Dispase II (StemCell Technologies), 50 μg/ml DNase (Roche) for 8 minutes at 37° C. The resulting solution was filtered through 40 μm mesh and stained for flow cytometry with APC-conjugated anti-EpCam (clone G8.8, Biolegend) with cell viability assessed with PI (Biolegend).

[3] = tested on: eosinophils and tuft cells of the distal small intestine; test: In vivo IL-25 i.p. injections in T. muris colonized Trpm5-/- mice: eosinophils and tuft cells of distal small intestine; conditions: 0.5 μg IL-25 i.p. daily for 7 days, vs PBS
Procedure: Epithelial cell isolation and flow cytometry —The distal 10 cm of small intestine was removed and flushed as described above. The intestine was opened longitudinally and gently agitated at 4° C. in PBS, 2% FBS, 5 mM EDTA, 1 mM DTT for 10 min. The tissue was then transferred into prewarmed PBS, 2% FBS, 5 mM EDTA and rotated at 37° C. for 15 minutes followed by vigorous shaking to remove epithelial cells. This was repeated and epithelial cells from both fractions were combined and washed with PBS. The epithelium was then digested in DMEM containing 10% FBS, 0.5 units/ml Dispase II (StemCell Technologies), 50 μg/ml DNase (Roche) for 12 minutes at 37° C. The resulting solution was passed through 40 μm filters and washed with PBS, 2% FBS, 1 mM EDTA. The resulting single cell suspension was initially Fc blocked with anti-CD16/CD32 (clone 93, Biolegend) and then stained with the following antibodies: PacBlue-conjugated anti-CD45 (clone 30-F11, Biolegend), APC-conjugated anti-EpCam (clone G8.8, Biolegend). The cell viability was assessed by propidium iodide (PI) (Biolegend) staining.
Lamina propria cell isolation and flow cytometry—The distal 10 cm of small intestine was collected and epithelial cells were removed as detailed above. […]

## Cc1ncc([N+](=O)[O-])n1CCO [metronidazole]
Tritrichomonas muris
  T. muris levels in stool (T. muris 28S rRNA relative to eubacteria 16S rRNA): eliminated T. muris; also recorded: below the limit of detection
Tuft cells
  tuft cell abundance / frequency in the epithelium: reduced tuft cell abundance; also recorded: reduces tuft cell frequency

B1: IL-13: recombinant IL-13 (Biolegend), type 2 cytokine added to organoid media (protein, UniProt P20109 19-131, looked up)
Interleukin-13: APGPVPRSVSLPLTLKELIEELSNITQDQTPLCNGSMVWSVDLAAGGFCVALDSLTNISNCNAIYRTQRILHGLCNRKAPTTVSSLPDTKIEVAHFITKLLSYTKQLFRHGPF
[1]
  expression of Dclk1 in organoids: increased
  expression of Trpm5 in organoids: increased
[2]; Trpm5-/- organoids
  tuft cells of total organoid cells: 10.9%
[2]
  effect on tuft cell numbers / abundance in organoids (in words): increases tuft cell abundance
[2]; WT organoids
  tuft cells of total organoid cells: 11.9%

B2: IL-25: recombinant IL-25 (Biolegend; R&D), parasite-induced cytokine, added to organoids or injected i.p. (protein, UniProt Q8VHH8 17-169, looked up)
Interleukin-25: VSLRIQEGCSHLPSCCPSKEQEPPEEWLKWSSASVSPPEPLSHTHHAESCRASKDGPLNSRAISPWSYELDRDLNRVPQDLYHARCLCPHCVSLQTGSHMDPLGNSVPLYHNQTVFYRRPCHGEEGTHRRYCLERRLYRVSLACVCVRPRVMA
[2]
  effect on tuft cell numbers / abundance in organoids (in words): did not increase tuft cell numbers
[3]
  distal small intestinal eosinophilia: restoration
  tuft cell abundance in distal small intestine: restoration
